Drawing on publication PMC9461663, “Covalent Inhibition of Pyruvate Kinase M2 Reprograms Metabolic and Inflammatory Pathways in Hepatic Macrophages against Non-alcoholic Fatty Liver Disease” (International Journal of Biological Sciences, 2022), this text covers stoichiometry N for 1 substance.

This assay deals with Pyruvate kinase M2 (mouse (endogenous in RAW264.7)) (UniProt P52480). Description: not stated; PKM2 tetramer in LPS-treated RAW264.7 cells with celastrol (Fig. S4); method not given.

Sequence of Pyruvate kinase M2, P52480 1-531 (enzyme; other documents disagree on this pair) (P52480 whole entry): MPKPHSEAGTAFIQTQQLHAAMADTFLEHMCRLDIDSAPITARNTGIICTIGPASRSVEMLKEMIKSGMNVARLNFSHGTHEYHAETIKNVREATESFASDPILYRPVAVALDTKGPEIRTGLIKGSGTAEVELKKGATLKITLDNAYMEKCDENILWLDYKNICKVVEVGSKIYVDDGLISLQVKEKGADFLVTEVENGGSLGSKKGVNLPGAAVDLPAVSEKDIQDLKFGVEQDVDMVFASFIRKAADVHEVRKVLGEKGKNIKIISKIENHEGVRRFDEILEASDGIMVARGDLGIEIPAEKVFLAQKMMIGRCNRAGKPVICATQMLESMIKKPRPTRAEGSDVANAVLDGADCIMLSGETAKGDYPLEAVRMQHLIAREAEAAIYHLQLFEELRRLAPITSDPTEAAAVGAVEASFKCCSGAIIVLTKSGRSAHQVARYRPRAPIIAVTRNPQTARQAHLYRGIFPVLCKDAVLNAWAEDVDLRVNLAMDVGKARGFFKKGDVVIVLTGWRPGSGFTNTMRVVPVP

In general, stoichiometry N refers to a count of units in the complex or per binding partner. “Pyruvate kinase M2, P52480 1-531 (enzyme; other documents disagree on this pair)” yielded a stoichiometry N of 4.
